Legend:
K2Q23K2 [1] = experiment: sedimentation assay with HPLC
K2Q23K2 [2] = experiment: seeded elongation kinetics
K2Q23K2 [3] = experiment: sedimentation assay with HPLC of the supernatant
K2Q23K2 [4] = target: K2Q23K2
[5] = target: the molecule itself; experiment: sedimentation assay with HPLC of the supernatant
[6] = Electron microscopy of end-stage aggregates; type: physicochemical; conditions: PBS 37 °C, uniform smooth-sided fibrils
[7] = Dynamic light scattering of aggregation reactions; type: physicochemical; conditions: 166 μM, PBS 37 °C, different incubation times
[8] = Aggregation time course by HPLC sedimentation assay; type: physicochemical; conditions: comparable concentrations, PBS 37 °C

Molecule: K2Q23K2 (peptide)
- critical concentration (Cr) of monomer in equilibrium with fibrils (K2Q23K2 [1]): 3 µM
- kon (K2Q23K2 [2]): 12400 M⁻¹ s⁻¹
- n* (critical nucleus size of aggregation) (K2Q23K2 [3]): 3.9
- nucleation equilibrium constant Kn* (monomers to tetrameric nucleus) (K2Q23K2 [3]): 0.076 l^3/mol^3
- percent aggregation (215 μM, 27 hrs) (K2Q23K2 [3]): 5%
- loss of monomer within two hours (215 μM) (K2Q23K2 [4]): < 1%

B1: K2Q37K2 (peptide)
peptide: KKQQQQQQQQQQQQQQQQQQQQQQQQQQQQQQQQQQQQQKK
- n* (critical nucleus size of aggregation) [5]: 0.7

B2: AT7^NTQ30K2: peptide consisting of the AT7^NT sequence (29 amino acid N-terminus of ataxin-7) followed by a Q30K2 sequence (peptide)
peptide: MSERAADDVRGEPRRAAAAAGGAAAAAARQQQQQQQQQQQQQQQQQQQQQQQQQQQQQQKK
- Fibril diameter by electron microscopy [6]: ~10 nm
- Aggregate formation by DLS versus sedimentation assay [7]: no aggregate formation that was not detected by the sedimentation assay
- Aggregation rate compared with K2Q30K2 [8]: aggregates somewhat slower than K2Q30K2

B3: K2Q24K2 (peptide)
peptide: KKQQQQQQQQQQQQQQQQQQQQQQQQKK
- n* (critical nucleus size of aggregation) [5]: 3.3

B4: SFQ37P10K2 (peptide)
peptide: SFQQQQQQQQQQQQQQQQQQQQQQQQQQQQQQQQQQQQQPPPPPPPPPPKK
- n* (critical nucleus size of aggregation) [5]: 1

B5: K2Q25K2 (peptide)
peptide: KKQQQQQQQQQQQQQQQQQQQQQQQQQKK
- n* (critical nucleus size of aggregation) [5]: 2
